Article PMC10514136, “Peptide-conjugated antimiRs improve myotonic dystrophy type 1 phenotypes by promoting endogenous MBNL1 expression” (Molecular Therapy. Nucleic Acids, 2023)
Values joined by “and” are separate entries in the source; they are usually repeats but may differ in a detail not shown here. Equal values may be shown once.

Assays:
Assay type in all cases: in vivo, mouse
Atp2a1 exon 22 = assay: Alternative splicing of Atp2a1 exon 22 in muscle by RT-PCR (PSI, splice recovery); conditions: HSALR mice, individual mice; for Percentage spliced-in (PSI) Atp2a1 Gast: 9.2 mg/kg (mean) i.v. x3, day 45, gastrocnemius; for Percentage spliced-in (PSI) Atp2a1 Quads: 9.2 mg/kg (mean) i.v. x3, day 45, quadriceps
Procedure: (§1) Total RNA from murine gastrocnemius and quadriceps muscle was isolated using the miRNeasy Mini Kit (QIAGEN, Hilden, Germany) according to the manufacturer’s instructions. One microgram of RNA was digested with DNase I (Invitrogen, Carlsbad, CA) and reverse transcribed with SuperScript II (Invitrogen) using random hexanucleotides. For subsequent PCR reactions, 20 ng of cDNA was used with GoTaq polymerase (Promega). Specific primers were used to analyze the alternative splicing of Nfix, Atp2a1, and Clcn1 in mouse samples (both muscles). Gapdh levels established the endogenous reference levels using 0.2 ng of cDNA. PCR products were separated on a 2% agarose gel and quantified using ImageJ software (NIH, Bethesda, MD). PSR index was defined as value%SI minus X¯%DSI , divided by X¯%DSI minus X¯%HSI (SI, splicing inclusion of each sample; DSI, disease splicing inclusion; HSI, healthy splicing inclusion). Overall, PSR indicates the amount in both muscles analyzed. Primer sequences and exons analyzed are available in Cerro-Herreros et al.[20] In the case of off-targets, interleukins, and muscle regeneration marker Mstn-1, primers sequences are available in Table S5. We used 1 ng of mouse tissue cDNA as a template for multiplex qPCR using the QuantiFast Probe PCR Kit reagent. Commercial TaqMan probes (QIAGEN) were used for mouse (Mbnl1 and Mbnl2; FAM-labeled probes) and reference (GAPDH; MAX-labeled probe) genes. Results were normalized to Gapdh endogenous gene expression.
(§2) We used homozygous transgenic HSA^LR (line 20 b) mice,[90] which were kindly provided by Dr Thornton (Rochester, NY) and were housed and bred in our animal facility. Experimental groups were FVB as healthy control and HSA^LR treated with a scrambled ON (SC) and PBS as negative controls, and HSA^LR mice treated with all six experimental CPP-PMOs. The mice were randomly allocated to the different treatments as follows: in each cage, each mouse was ear-marked as it was taken out, and each mouse was then assigned to a different treatment. […] Mice were sacrificed 45 days after the first injection and the tissues of interest were frozen in liquid nitrogen for the molecular and histological assays. All the mice used in this study ranged from 5 to 5.5 months of age and all were males.

HSALR mice [1] = assay: Serum biochemistry profile; conditions: mouse, in vivo, iv, 9.2 mg/kg
Excerpt: (§3) Mouse handling and experimental procedures followed the European law regarding laboratory animal care and experimentation (2003/65/C.E.) and were approved by Conselleria de Agricultura, […] (reference no. A1539961490857). We used homozygous transgenic HSA^LR (line 20 b) mice,[90] which were kindly provided by Dr Thornton (Rochester, NY) and were housed and bred in our animal facility. […] The mice were randomly allocated to the different treatments as follows: in each cage, each mouse was ear-marked as it was taken out, and each mouse was then assigned to a different treatment. Animals were injected biweekly intravenously with 150 μL of 1× PBS vehicle (controls; […] Mice were sacrificed 45 days after the first injection and the tissues of interest were frozen in liquid nitrogen for the molecular and histological assays. All the mice used in this study ranged from 5 to 5.5 months of age and all were males. At 45 days post treatment, animals were sacrificed, and blood was collected by cardiac puncture exsanguination with K3-EDTA (Sarstedt, Nümbrecht, Germany). The samples were analyzed by Laboratorios Montoro Botella (Valencia, Spain).

HSALR mice [2] = assay: White blood cell differential count; conditions: mouse, in vivo, iv, 9.2 mg/kg
Excerpt: as §3

Nfix exon 7 = assay: Alternative splicing of Nfix exon 7 in muscle by RT-PCR (PSI, splice recovery); conditions: HSALR mice, individual mice; for Percentage spliced-in (PSI) Nfix Gast: 9.2 mg/kg (mean) i.v. x3, day 45, gastrocnemius; for Percentage spliced-in (PSI) Nfix Quads: 9.2 mg/kg (mean) i.v. x3, day 45, quadriceps
Procedure: as §1, §2

[3] = ELISA determination of antimiR conjugate concentrations in tissues; conditions: HSALR mice, 9.2 mg/kg (mean) i.v. x3, day 45, 9.2 mg/kg; for CPP-PMO concentration (pM), Brain / CPP-PMO concentration (pM), Gastrocnemius / CPP-PMO concentration (pM), Heart / CPP-PMO concentration (pM), Kidney / CPP-PMO concentration (pM), Liver / CPP-PMO concentration (pM), Quadriceps: hybridization ELISA, background subtracted, individual mice; for CPP-PMO levels in tissues, in words: ELISA in kidney, liver, heart, quadriceps, gastrocnemius, brain
Procedure: Custom ELISA-based measurements of antimiR conjugate concentrations in brain, kidney, liver, heart, gastrocnemius, and quadriceps from treated HSA^LR mice were performed as described in Burki et al.,[89] using the following phosphorothioate probes: for miR-218 (5′ → 3′) [DIG] T∗T∗G∗T∗G∗C∗T∗TGATCTA∗A∗C∗C∗A∗T∗G∗T [BIO]; for miR-23b (5′ → 3′) [BIO] A∗T∗C∗A∗C∗A∗T∗TGCCAGG∗G∗A∗T∗T∗A∗C∗C [DiG] double-labeled with digoxigenin (DIG) and biotin (BIO). In all cases, a control sample was used to subtract the background (HSA^LR treated with PBS for 9b2 and 9b2-KC ONs; HSA^LR treated with Scramble for 6aKC ONs).
Mouse handling and experimental procedures followed the European law regarding laboratory animal care and experimentation (2003/65/C.E.) and were approved by Conselleria de Agricultura, Generalitat Valenciana (reference no. A1539961490857). We used homozygous transgenic HSA^LR (line 20 b) mice,[90] which were kindly provided by Dr Thornton (Rochester, NY) and were housed and bred in our animal facility. Experimental groups were FVB as healthy control and HSA^LR treated with a scrambled ON (SC) and PBS as negative controls, and HSA^LR mice treated with all six experimental CPP-PMOs. The mice were randomly allocated to the different treatments as follows: in each cage, each mouse was ear-marked as it was taken out, and each mouse was then assigned to a different treatment. Animals were injected biweekly intravenously with 150 μL of 1× PBS vehicle (controls; HSA^LR n = 7 and FVB n = 6) or 150 μL of a solution 1.875 mg/mL of the test CPP-PMOs corresponding to an average dose of 9.2 mg/kg (HSA^LR mice: SC n = 5, 9b2-218 n = 5, 9b2-23b n = 5, […] n = 5, […] n = 5, 6aKC-218 n = 5, and 6aKC-23b n = 5; see Table S6 for precise dosing). Mice were sacrificed 45 days after the first injection and the tissues of interest were frozen in liquid nitrogen for the molecular and histological assays. All the mice used in this study ranged from 5 to 5.5 months of age and all were males.

Substance | Percentage spliced-in (PSI) Atp2a1 Gast (Atp2a1 exon 22) | Percentage spliced-in (PSI) Atp2a1 Quads (Atp2a1 exon 22) | ALT (HSALR mice [1]) | Alkaline Phosphatase (HSALR mice [1]) | Amylase (HSALR mice [1]) | Bile Acids (HSALR mice [1]) | Bilirubin (HSALR mice [1]) | Creatinine (HSALR mice [1]) | Lipase (HSALR mice [1]) | Urea (HSALR mice [1]) | Basophils (HSALR mice [2]) | Eosinophils (HSALR mice [2]) | Lymphocytes (HSALR mice [2]) | Monocytes (HSALR mice [2]) | Seg cells (HSALR mice [2]) | Percentage spliced-in (PSI) Nfix Gast (Nfix exon 7) | Percentage spliced-in (PSI) Nfix Quads (Nfix exon 7) | CPP-PMO concentration (pM), Brain [3] | CPP-PMO concentration (pM), Gastrocnemius [3] | CPP-PMO concentration (pM), Heart [3] | also measured
9b2-23b (antisense GGUAAUCCCUGGCAAUGUGAU; all phosphorodiamidate morpholino (PMO), T or U not given here; Pip9b2 peptide conjugated) | 52.69% and 18.37% and 16.01% and 11.16% and 23.52% | 98.27% and 99.53% and 75.32% and 25.61% and 36.45% | 47 ± 6,708 U/L | 61 ± 4,301 U/L | 2754,4 ± 540,954 U/L | 9 ± 11,747 µmol/L | 0,102 ± 0,029 mg/dL | 0,26 ± 0,054 mg/dL | 36,60 ± 8,264 U/L | 53 ± 2,345 mg/dL | 0,2 ± 0,447% | 6,20 ± 2,588% | 65,40 ± 6,189% | 6,20 ± 2,683% | 21 ± 3,391% | 55.08% and 63.11% and 66.38% and 63.52% and 47.66% | 15.30% and 54.78% and 4.40% and 48.44% and 23.44% | 84.29 pM and 5.89 pM and 3.33 pM | 1173.05 pM and 672.99 pM and 96.96 pM | 458.72 pM and 70.02 pM and 540.73 pM | urea values vs HSALR group treated with PBS (HSALR mice [1]): statistically significant increase in the urea values; CPP-PMO concentration (pM), Kidney [3]: 417329.90 pM and 445161.13 pM and 596014.00 pM; CPP-PMO concentration (pM), Liver [3]: 14705.39 pM and 13935.38 pM and 16995.86 pM; CPP-PMO concentration (pM), Quadriceps [3]: 664.60 pM and 444.65 pM and 237.24 pM
9b2-218 (antisense ACAUGGUUAGAUCAAGCACAA; all phosphorodiamidate morpholino (PMO), T or U not given here; Pip9b2 peptide conjugated) | 14.72% and 85.58% and 28.83% and 19.19% and 31.61% | 71.69% and 99.29% and 50.19% and 99.72% and 99.28% | 49 ± 19,079 U/L | 61,40 ± 6,730 U/L | 2773,2 ± 363,954 U/L | 74,80 ± 159,433 µmol/L | 0,108 ± 0,044 mg/dL | 0,32 ± 0,192 mg/dL | 63,8 ± 75,793 U/L | 44,40 ± 6,985 mg/dL | 0,2 ± 0,447% | 5,40 ± 2,073% | 61,60 ± 4,159% | 9,60 ± 3,209% | 22,40 ± 3,647% | 58.31% and 29.97% and 59.09% and 66.06% and 69.09% | 30.95% and 10.51% and 43.26% and 15.39% and 35.59% | 33.45 pM and 18.40 pM and 128.86 pM | 504.97 pM and 1534.26 pM and 428.98 pM | 1166.04 pM and 1995.51 pM and 1662.31 pM | CPP-PMO concentration (pM), Kidney [3]: 348919.38 pM and 303314.43 pM and 726042.17 pM; CPP-PMO concentration (pM), Liver [3]: 16959.56 pM and 11986.59 pM and 23535.44 pM; CPP-PMO concentration (pM), Quadriceps [3]: 482.70 pM and 1344.85 pM and 1437.67 pM
9b2KC-23b (antisense GGUAAUCCCUGGCAAUGUGAU; all phosphorodiamidate morpholino (PMO), T or U not given here; Pip9b2KC peptide conjugated) | 11.22% and 31.29% and 33.92% and 10.51% and 42.67% | 37.72% and 33.71% and 28.53% and 24.15% and 39.24% | 45,20 ± 1,303 U/L | 58,8 ± 5,718 U/L | 2952,6 ± 123,373 U/L | 8,40 ± 8,264 µmol/L | 0,10 ± 0,045 mg/dL | 0.20 ± 0,071 mg/dL | 30,6 ± 6,730 U/L | 43,6 ± 6,580 mg/dL | 0 ± 0% | 9,50 ± 3,109% | 60,25 ± 6,185% | 5,75 ± 2,363% | 23,5 ± 4,203% | 45.55% and 53.38% and 57.04% and 62.73% and 57.17% | 54.10% and 56.90% and 66.58% and 51.62% and 56.46% | 17.78 pM and 0.01 pM and 0.87 pM | 3.32 pM and 2.34 pM and 0.01 pM | 256.63 pM and 2.97 pM and 105.40 pM | CPP-PMO levels in tissues, in words [3]: lower muscle levels; CPP-PMO levels in tissues, in words ([3]; listed as 9bKC-23b): accumulation in liver was higher compared with our target tissues; CPP-PMO concentration (pM), Kidney [3]: 404860.30 pM and 2213436.59 pM and 1672927.68 pM; CPP-PMO concentration (pM), Liver [3]: 113314.70 pM and 27707.42 pM and 93287.30 pM; CPP-PMO concentration (pM), Quadriceps [3]: 127.62 pM and 457.08 pM and 0.82 pM
